Patent publication US20190359710A1

Columns and labels:
[1] = target: CD33 and CD123 together on double-positive human AML cells; assay: cell-based or functional assay
[2] = target: CD33 and CD123 together on double-positive human AML cells; assay: calibrated flow cytometry on MOLM13 cells (CD33/CD123 double-positive)

B1: single chain triplebody SPM-2, hu(33-ds16-ds123RK) (protein)
chain: EVQLVESGGGLIQPGGSLRLSCAASGFPLTSYGVSWVRQPPGKGLEWLGVIWGDGSTNYHSALISRFTISRDNSKNTLYLQMNSLRAEDTAVYYCARDTYYPYYAMDYWGQGTTVTVSSGGGGSGGGGSGGGGSDIQMTQSPSSLSASVGDRVTITCKASQDVSTAVAWYQQKPGKAPKLLIYSASYRYTGVPSRFSGSGSGTDFTLTISSLQPEDFATYYCQQHYSTPLTFGQGTKLEIKRGGGGSGGGGSGGGGSGGGGSDIVLTQSPSSLSASVGDRVTITCKASQSVDFDGDSFMNWYQQKPGKAPKLLIYTTSNLESGVPSRFSASGSGTDFTLTISSLQPEDFATYYCQQSNEDPYTFGCGTKVEIKRGGGGSGGGGSGGGGSGGGGSEVQLVESGGGDVQPGGSLRLSCAFSGFSLRTSGMGVGWIRQAPGKCLEWVAHIWWDDDKRYNPSVKGRFTISKDTSSNTVYLQMNSLRAEDTAVYYCAQINPAWFAYWGQGTLVTVSSGGGGSGGGGSGGGGSGGGGSEVQLVESGGGLVQPGGSLRLSCAASGFTFTDYYMSWVRQAPGKCLEWLALIRSKADGYTTEYSASVKGRFTISRDDSKNSLYLQMNSLKTEDTAVYYCARDAAYYSYYSPEGAMDYWGQGTSVTVSSGGGGSGGGGSGGGGSDIQMTQSPSSLSASVGDRVTITCKASQNVDSAVAWYQQKPGKAPKALIYSASYRYSGVPSRFSGSGSGTDFTLTISSLQPEDFATYYCQQYYSTPWTFGCGTKVEIKRGGGGSHHHHHH
- % specific lysis of MOLM-13 cells at 1 nM SPM-2, 4 hr time point [1]: 30.7%
- Biol. Activity EC50 [pM], redirected lysis (RDL), 3 h, E:T=10:1 (MNC:MOLM-13) [1]: 14 pM
- EC50 (pM), RDL cytolysis of primary MNCs of AML patient P1 with LAK cells [1]: 131 pM
- EC50 (pM), RDL cytolysis of primary MNCs of AML patient P2 with LAK cells [1]: 20 pM
- EC50 (pM), RDL cytolysis of primary MNCs of AML patient P3 with LAK cells [1]: 67 pM
- EC50 (pM), RDL cytolysis of primary MNCs of AML patient P4 with LAK cells [1]: 32 pM
- EC50 (pM), RDL cytolysis of primary MNCs of AML patient P5 with LAK cells [1]: 242 pM
- EC50 (pM), RDL cytolysis of primary MNCs of AML patient P6 with LAK cells [1]: 155 pM
- EC50 (pM), RDL cytolysis of primary MNCs of AML patient P7 with LAK cells [1]: 79 pM
- EC50 (pM), RDL cytolysis of primary MNCs of AML patient P8 with LAK cells [1]: 133 pM
- EC50 (pM), RDL cytolysis of primary MNCs of AML patient P9 with LAK cells [1]: 166 pM
- EC50 (pM), RDL cytolysis of primary MNCs of AML patient P10 with LAK cells [1]: 51 pM
- EC50 (pM), RDL cytolysis of primary MNCs of AML patient P11 with LAK cells [1]: 1080 pM
- EC50 (pM), RDL cytolysis of primary MNCs of AML patient P12 with LAK cells [1]: 38 pM
- EC50 (pM), RDL cytolysis of primary MNCs of AML patient P13 with LAK cells [1]: 245 pM
- EC50 (pM), RDL cytolysis of primary MNCs of AML patient P14 with LAK cells [1]: 229 pM
- EC50 (pM), RDL cytolysis of primary MNCs of AML patient P15 with LAK cells [1]: 177 pM
- EC50 (pM), RDL cytolysis of primary MNCs of AML patient P16 with LAK cells [1]: 758 pM
- EC50 (pM), RDL cytolysis of primary MNCs of AML patient P17 with LAK cells [1]: 125 pM
- EC50 (pM), RDL cytolysis of primary MNCs of AML patient P18 with LAK cells [1]: 221 pM
- EC50 (pM), RDL cytolysis of primary MNCs of AML patient P19 with LAK cells [1]: 406 pM
- EC50 (pM), RDL cytolysis of primary MNCs of AML patient P20 with LAK cells [1]: 251 pM
- EC50 (pM), RDL cytolysis of primary MNCs of AML patient P21 with LAK cells [1]: 22 pM
- EC50 (pM), RDL cytolysis of primary MNCs of AML patient P22 with LAK cells [1]: 225 pM
- EC50 (pM), RDL cytolysis of primary MNCs of AML patient P23 with LAK cells [1]: 476 pM
- EC50 (pM), RDL cytolysis of primary MNCs of AML patient P24 with LAK cells [1]: 127 pM
- EC50 (pM), RDL cytolysis of primary MNCs of AML patient P25 with LAK cells [1]: 541 pM
- EC50 (pM), RDL cytolysis of primary MNCs of AML patient P26 with LAK cells [1]: 58 pM
- EC50 (pM), RDL cytolysis of primary MNCs of AML patient P27 with LAK cells [1]: 10 pM
- EC50 (pM), RDL cytolysis of primary MNCs of AML patient P28 with LAK cells [1]: 560 pM
- EC50 (pM), RDL cytolysis of primary MNCs of AML patient P29 with LAK cells [1]: 70 pM
- EC50 (pM), RDL lysis of CD34-enriched MNCs of AML patient P9 [1]: 43 pM
- EC50 (pM), RDL lysis of CD34-enriched MNCs of AML patient P11 [1]: 681 pM
- EC50, standard RDL assay, MOLM-13 targets, thawed LAK cells, 4 hr, MNC:Target 10:1 [1]: 0.024 nM

B2: candidate triplebody hu[33-ds16-ds123RK] before polishing of the sequence (protein, not shown: small tags and cut ends)
chain: EVQLVESGGGLIQPGGSLRLSCAASGFPLTSYGVSWVRQPPGKGLEWLGVIWGDGSTNYHSALISRFTISRDNSKNTLYLQMNSLRAEDTAVYYCARDTYYPYYAMDYWGQGTTVTVSSGGGGSGGGGSGGGGSDIQMTQSPSSLSASVGDRVTITCKASQDVSTAVAWYQQKPGKAPKLLIYSASYRYTGVPSRFSGSGSGTDFTLTISSLQPEDFATYYCQQHYSTPLTFGQGTKLEIKRGGGGSGGGGSGGGGSGGGGSDIVLTQSPSSLSASVGDRVTITCKASQSVDFDGDSFMNWYQQKPGKAPKLLIYTTSNLESGVPSRFSASGSGTDFTLTISSLQPEDFATYYCQQSNEDPYTFGCGTKVEIKRGGGGSGGGGSGGGGSGGGGSEVQLVESGGGDVQPGGSLRLSCAFSGFSLRTSGMGVGWIRQAPGKCLEWVAHIWWDDDKRYNPSVKGRFTISKDTSSNTVYLQMNSLRAEDTAVYYCAQINPAWFAYWGQGTLVTVSSGGGGSGGGGSGGGGSGGGGSEVQLVESGGGLVQPGGSLRLSCAASGFTFTDYYMSWVRQAPGKCLEWLALIRSKADGYTTEYSASVKGRFTISRDDSKNSLYLQMNSLKTEDTAVYYCARDAAYYSYYSPEGAMDYWGQGTSVTVSSGGGGSGGGGSGGGGSDIQMTQSPSSLSASVGDRVTITCKASQNVDSAVAWYQQKPGKAPKALIYSASYRYSGVPSRFSGSGSGTDFTLTISSLQPEDFATYYCQQYYSTPWTFGCGTKVEIKR
- Kd [2]: 11 nM
